Assay results reported in EP4772193A1 (Teijin Pharma Limited, dated 2026).
Like-named read-outs stand apart in the source and are kept apart here.

T1: recombinant human soluble gpNMB (recombinant human gpNMB-FLAG-His) (human, UniProt Q14956 23-498)
T1 sequence: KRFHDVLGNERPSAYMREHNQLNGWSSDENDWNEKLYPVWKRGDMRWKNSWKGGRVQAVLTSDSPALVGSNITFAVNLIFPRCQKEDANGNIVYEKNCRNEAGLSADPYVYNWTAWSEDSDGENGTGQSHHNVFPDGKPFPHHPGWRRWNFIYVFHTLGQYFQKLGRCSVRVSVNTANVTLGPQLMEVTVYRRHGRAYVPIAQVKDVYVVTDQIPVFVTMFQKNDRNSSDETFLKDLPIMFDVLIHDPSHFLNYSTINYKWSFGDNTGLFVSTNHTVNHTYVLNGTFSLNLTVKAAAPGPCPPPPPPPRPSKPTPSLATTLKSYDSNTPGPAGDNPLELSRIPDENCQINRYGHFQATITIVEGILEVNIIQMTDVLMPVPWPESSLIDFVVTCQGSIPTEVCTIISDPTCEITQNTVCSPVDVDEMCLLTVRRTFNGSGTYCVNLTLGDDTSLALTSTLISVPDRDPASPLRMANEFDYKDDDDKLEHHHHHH


What was measured:
[1] = biological target: T1, recombinant human soluble gpNMB …; experiment: antigen ELISA, vs hGPN18-2_H2L3
[2] = biological target: T1, recombinant human soluble gpNMB …; experiment: antigen ELISA
[3] = biological target: T1, recombinant human soluble gpNMB …; experiment: antigen ELISA, vs hGPN18-2_H2L3; remark: listed apart in the source
[4] = biological target: T1, recombinant human soluble gpNMB …; experiment: antigen ELISA; remark: listed apart in the source

Binder | Relative binding activity [1] | EC50 [2] [nM] | Relative binding activity [3] | EC50 [4] [nM]
hGPN18-2_H2L3 VH D111A (antibody, V domains shown) VH: QVQLVQSGPGLVQPTQTLTLTCSFSGFSLSTSVMGVGWIRQPSGKGLEWLADIWWDDDKDYNPSLKSRLTISKDTSKNQVVLTMTNMDTVDTATYYCARTYYSNYEYYGMAYWGQGTLVTVSS VL: DIVMTQSPDSLAVSLGERATINCRSSQTIILSNGNTYLEWYQQKPGQPPKLLIYKVSNRFSGVPDRFSGSGSGTDFTLTISSLQAEDVAVYYCFQGSHVPFTFGSGTKLEIKR | 0.62 | 11.3 |  | 
hGPN18-2_H2L3 VH N62A (antibody, V domains shown) VH: QVQLVQSGPGLVQPTQTLTLTCSFSGFSLSTSVMGVGWIRQPSGKGLEWLADIWWDDDKDYAPSLKSRLTISKDTSKNQVVLTMTNMDTVDTATYYCARTYYSNYEYYGMDYWGQGTLVTVSS VL: DIVMTQSPDSLAVSLGERATINCRSSQTIILSNGNTYLEWYQQKPGQPPKLLIYKVSNRFSGVPDRFSGSGSGTDFTLTISSLQAEDVAVYYCFQGSHVPFTFGSGTKLEIKR | 0.97 | 4.58 |  | 
hGPN18-2_H2L3 VH K66A (antibody, V domains shown) VH: QVQLVQSGPGLVQPTQTLTLTCSFSGFSLSTSVMGVGWIRQPSGKGLEWLADIWWDDDKDYNPSLASRLTISKDTSKNQVVLTMTNMDTVDTATYYCARTYYSNYEYYGMDYWGQGTLVTVSS VL: DIVMTQSPDSLAVSLGERATINCRSSQTIILSNGNTYLEWYQQKPGQPPKLLIYKVSNRFSGVPDRFSGSGSGTDFTLTISSLQAEDVAVYYCFQGSHVPFTFGSGTKLEIKR | 0.96 | 4.96 |  | 
hGPN18-2_H2L3 VH E106A (antibody, V domains shown) VH: QVQLVQSGPGLVQPTQTLTLTCSFSGFSLSTSVMGVGWIRQPSGKGLEWLADIWWDDDKDYNPSLKSRLTISKDTSKNQVVLTMTNMDTVDTATYYCARTYYSNYAYYGMDYWGQGTLVTVSS VL: DIVMTQSPDSLAVSLGERATINCRSSQTIILSNGNTYLEWYQQKPGQPPKLLIYKVSNRFSGVPDRFSGSGSGTDFTLTISSLQAEDVAVYYCFQGSHVPFTFGSGTKLEIKR | 0.64 | 10.8 |  | 
hGPN18-2_H2L3 VH N104A (antibody, V domains shown) VH: QVQLVQSGPGLVQPTQTLTLTCSFSGFSLSTSVMGVGWIRQPSGKGLEWLADIWWDDDKDYNPSLKSRLTISKDTSKNQVVLTMTNMDTVDTATYYCARTYYSAYEYYGMDYWGQGTLVTVSS VL: DIVMTQSPDSLAVSLGERATINCRSSQTIILSNGNTYLEWYQQKPGQPPKLLIYKVSNRFSGVPDRFSGSGSGTDFTLTISSLQAEDVAVYYCFQGSHVPFTFGSGTKLEIKR | 0.8 | 5.62 |  | 
hGPN18-2_H2L3 VH M110A (antibody, V domains shown) VH: QVQLVQSGPGLVQPTQTLTLTCSFSGFSLSTSVMGVGWIRQPSGKGLEWLADIWWDDDKDYNPSLKSRLTISKDTSKNQVVLTMTNMDTVDTATYYCARTYYSNYEYYGADYWGQGTLVTVSS VL: DIVMTQSPDSLAVSLGERATINCRSSQTIILSNGNTYLEWYQQKPGQPPKLLIYKVSNRFSGVPDRFSGSGSGTDFTLTISSLQAEDVAVYYCFQGSHVPFTFGSGTKLEIKR | 0.41 | 23.4 |  | 
hGPN18-2_H2L3 VH P63A (antibody, V domains shown) VH: QVQLVQSGPGLVQPTQTLTLTCSFSGFSLSTSVMGVGWIRQPSGKGLEWLADIWWDDDKDYNASLKSRLTISKDTSKNQVVLTMTNMDTVDTATYYCARTYYSNYEYYGMDYWGQGTLVTVSS VL: DIVMTQSPDSLAVSLGERATINCRSSQTIILSNGNTYLEWYQQKPGQPPKLLIYKVSNRFSGVPDRFSGSGSGTDFTLTISSLQAEDVAVYYCFQGSHVPFTFGSGTKLEIKR | 0.43 | 12 |  | 
hGPN18-2_H2L3 VH G109A (antibody, V domains shown) VH: QVQLVQSGPGLVQPTQTLTLTCSFSGFSLSTSVMGVGWIRQPSGKGLEWLADIWWDDDKDYNPSLKSRLTISKDTSKNQVVLTMTNMDTVDTATYYCARTYYSNYEYYAMDYWGQGTLVTVSS VL: DIVMTQSPDSLAVSLGERATINCRSSQTIILSNGNTYLEWYQQKPGQPPKLLIYKVSNRFSGVPDRFSGSGSGTDFTLTISSLQAEDVAVYYCFQGSHVPFTFGSGTKLEIKR | 0.61 | 10.5 |  | 
hGPN18-2_H2L3 VH L65A (antibody, V domains shown) VH: QVQLVQSGPGLVQPTQTLTLTCSFSGFSLSTSVMGVGWIRQPSGKGLEWLADIWWDDDKDYNPSAKSRLTISKDTSKNQVVLTMTNMDTVDTATYYCARTYYSNYEYYGMDYWGQGTLVTVSS VL: DIVMTQSPDSLAVSLGERATINCRSSQTIILSNGNTYLEWYQQKPGQPPKLLIYKVSNRFSGVPDRFSGSGSGTDFTLTISSLQAEDVAVYYCFQGSHVPFTFGSGTKLEIKR | 0.94 | 5.04 |  | 

Continued, values first:

Relative binding activity [1] | EC50 [2] [nM] | Relative binding activity [3] | EC50 [4] [nM] | Binder
 |  | 0.2 | 38 | hGPN18-2_H2L3 VH W54A (antibody, V domains shown) VH: QVQLVQSGPGLVQPTQTLTLTCSFSGFSLSTSVMGVGWIRQPSGKGLEWLADIAWDDDKDYNPSLKSRLTISKDTSKNQVVLTMTNMDTVDTATYYCARTYYSNYEYYGMDYWGQGTLVTVSS VL: DIVMTQSPDSLAVSLGERATINCRSSQTIILSNGNTYLEWYQQKPGQPPKLLIYKVSNRFSGVPDRFSGSGSGTDFTLTISSLQAEDVAVYYCFQGSHVPFTFGSGTKLEIKR
 |  | 0.55 | 8.88 | hGPN18-2_H2L3 VH V33A (antibody, V domains shown) VH: QVQLVQSGPGLVQPTQTLTLTCSFSGFSLSTSAMGVGWIRQPSGKGLEWLADIWWDDDKDYNPSLKSRLTISKDTSKNQVVLTMTNMDTVDTATYYCARTYYSNYEYYGMDYWGQGTLVTVSS VL: DIVMTQSPDSLAVSLGERATINCRSSQTIILSNGNTYLEWYQQKPGQPPKLLIYKVSNRFSGVPDRFSGSGSGTDFTLTISSLQAEDVAVYYCFQGSHVPFTFGSGTKLEIKR
0.37 | 10.6 |  |  | hGPN18-2_H2L3 VH R99A (antibody, V domains shown) VH: QVQLVQSGPGLVQPTQTLTLTCSFSGFSLSTSVMGVGWIRQPSGKGLEWLADIWWDDDKDYNPSLKSRLTISKDTSKNQVVLTMTNMDTVDTATYYCAATYYSNYEYYGMDYWGQGTLVTVSS VL: DIVMTQSPDSLAVSLGERATINCRSSQTIILSNGNTYLEWYQQKPGQPPKLLIYKVSNRFSGVPDRFSGSGSGTDFTLTISSLQAEDVAVYYCFQGSHVPFTFGSGTKLEIKR
1.01 | 4.25 |  |  | hGPN18-2_H2L3 VH S67A (antibody, V domains shown) VH: QVQLVQSGPGLVQPTQTLTLTCSFSGFSLSTSVMGVGWIRQPSGKGLEWLADIWWDDDKDYNPSLKARLTISKDTSKNQVVLTMTNMDTVDTATYYCARTYYSNYEYYGMDYWGQGTLVTVSS VL: DIVMTQSPDSLAVSLGERATINCRSSQTIILSNGNTYLEWYQQKPGQPPKLLIYKVSNRFSGVPDRFSGSGSGTDFTLTISSLQAEDVAVYYCFQGSHVPFTFGSGTKLEIKR
0.94 | 4.04 |  |  | hGPN18-2_H2L3 VH S103A (antibody, V domains shown) VH: QVQLVQSGPGLVQPTQTLTLTCSFSGFSLSTSVMGVGWIRQPSGKGLEWLADIWWDDDKDYNPSLKSRLTISKDTSKNQVVLTMTNMDTVDTATYYCARTYYANYEYYGMDYWGQGTLVTVSS VL: DIVMTQSPDSLAVSLGERATINCRSSQTIILSNGNTYLEWYQQKPGQPPKLLIYKVSNRFSGVPDRFSGSGSGTDFTLTISSLQAEDVAVYYCFQGSHVPFTFGSGTKLEIKR
0.47 | 8.44 |  |  | hGPN18-2_H2L3 VH T100A (antibody, V domains shown) VH: QVQLVQSGPGLVQPTQTLTLTCSFSGFSLSTSVMGVGWIRQPSGKGLEWLADIWWDDDKDYNPSLKSRLTISKDTSKNQVVLTMTNMDTVDTATYYCARAYYSNYEYYGMDYWGQGTLVTVSS VL: DIVMTQSPDSLAVSLGERATINCRSSQTIILSNGNTYLEWYQQKPGQPPKLLIYKVSNRFSGVPDRFSGSGSGTDFTLTISSLQAEDVAVYYCFQGSHVPFTFGSGTKLEIKR
 |  | 0.92 | 3.43 | hGPN18-2_H2L3 VH V36A (antibody, V domains shown) VH: QVQLVQSGPGLVQPTQTLTLTCSFSGFSLSTSVMGAGWIRQPSGKGLEWLADIWWDDDKDYNPSLKSRLTISKDTSKNQVVLTMTNMDTVDTATYYCARTYYSNYEYYGMDYWGQGTLVTVSS VL: DIVMTQSPDSLAVSLGERATINCRSSQTIILSNGNTYLEWYQQKPGQPPKLLIYKVSNRFSGVPDRFSGSGSGTDFTLTISSLQAEDVAVYYCFQGSHVPFTFGSGTKLEIKR
1.09 | 3.59 |  |  | hGPN18-2_H2L3 VH S64A (antibody, V domains shown) VH: QVQLVQSGPGLVQPTQTLTLTCSFSGFSLSTSVMGVGWIRQPSGKGLEWLADIWWDDDKDYNPALKSRLTISKDTSKNQVVLTMTNMDTVDTATYYCARTYYSNYEYYGMDYWGQGTLVTVSS VL: DIVMTQSPDSLAVSLGERATINCRSSQTIILSNGNTYLEWYQQKPGQPPKLLIYKVSNRFSGVPDRFSGSGSGTDFTLTISSLQAEDVAVYYCFQGSHVPFTFGSGTKLEIKR
 |  | 0.66 | 8.36 | hGPN18-2_H2L3 VH W55A (antibody, V domains shown) VH: QVQLVQSGPGLVQPTQTLTLTCSFSGFSLSTSVMGVGWIRQPSGKGLEWLADIWADDDKDYNPSLKSRLTISKDTSKNQVVLTMTNMDTVDTATYYCARTYYSNYEYYGMDYWGQGTLVTVSS VL: DIVMTQSPDSLAVSLGERATINCRSSQTIILSNGNTYLEWYQQKPGQPPKLLIYKVSNRFSGVPDRFSGSGSGTDFTLTISSLQAEDVAVYYCFQGSHVPFTFGSGTKLEIKR
